To fix the notation:
B1: Twister Ribozyme (parent)
chain: AACACUGCCAAUGCCGGUCCCAAGCCCGGAUAAAAGUGGAGGGGGCGG

The series covers variants of B1. Description: self-cleavage, relative activity (ratio to wild type); higher = more cleavage; co-transcriptional.
Take C3U G39C: the self-cleavage stood at 0.0856.

For C3U G39A, the self-cleavage came out at 0.146.

In the case of C3U A11U, the self-cleavage worked out at 0.428.

Turning to C3U A11G, the self-cleavage was found to be 0.438.

As for C3U A11C, the self-cleavage amounted to 0.191.

As to C3A C25A, the self-cleavage worked out at 0.0581.

On to C3A C25G, for which the self-cleavage turned out to be 0.12.

For C3G A22G, the self-cleavage amounted to 0.124.

In the case of C3G A22C, the self-cleavage worked out at 0.481.

As for C3U G38A, the self-cleavage amounted to 0.396.

C3U G38C: the self-cleavage was 0.288.

For the variant C3G G47C, the self-cleavage came to 0.149.

Regarding A4G A33G, the self-cleavage was 0.941.

Take A4G A33C: the self-cleavage worked out at 0.721.

For the variant A4C U12A, the self-cleavage was 0.193.

With A4C U12G, the self-cleavage was 0.332.

Regarding C3A G17C, the self-cleavage came out at 0.0654.

For the variant C3A G17U, the self-cleavage worked out at 0.0649.

Take A4C U6A: the self-cleavage worked out at 0.0472.

As to A4G A22C, the self-cleavage amounted to 1.01.

With A4G A22G, the self-cleavage was 0.0987.

As to A4G A22U, the self-cleavage is 0.69.

In the case of C3A U6C, the self-cleavage is 0.0414.

Regarding C3A U6G, the self-cleavage stood at 0.121.

Turning to C3A G13A, the self-cleavage came to 0.207.

With C3A G13U, the self-cleavage is 0.127.

Turning to A4C U37G, the self-cleavage came out at 0.623.

With A4C U37C, the self-cleavage is 0.122.

Turning to A4C U37A, the self-cleavage was determined as 0.766.

As for A4G G43U, the self-cleavage is 0.233.

For the variant A4G G43A, the self-cleavage worked out at 0.165.

With A4G G43C, the self-cleavage came to 0.168.

A4G G24U: the self-cleavage amounted to 0.12.

As to C3A C5U, the self-cleavage stood at 0.159.

As for C3A C5A, the self-cleavage turned out to be 0.0993.

With C3A C5G, the self-cleavage was 0.265.

For the variant A4G G41U, the self-cleavage was 0.405.

Take C3U C21A: the self-cleavage was 0.0567.

Regarding C3U C21G, the self-cleavage is 0.221.

On to C3U C5G, for which the self-cleavage amounted to 0.105.

Regarding C3U C5U, the self-cleavage turned out to be 0.315.

Turning to C3U C5A, the self-cleavage is 0.219.

With C3A G24C, the self-cleavage was 0.0654.

For C3G C46U, the self-cleavage worked out at 0.583.

Turning to C3G C46A, the self-cleavage came to 0.624.

Turning to C3G C46G, the self-cleavage amounted to 0.568.

For the variant C3G G36C, the self-cleavage is 0.0943.

In the case of A4G C14G, the self-cleavage worked out at 0.276.

A4G C14U: the self-cleavage is 0.957.

With A4G C14A, the self-cleavage is 0.76.

For C3G G24U, the self-cleavage was found to be 0.0918.

On to C3G G24A, for which the self-cleavage was determined as 0.0502.

Consider A4G A34G, for which the self-cleavage came out at 0.61.

For the variant C3U C27G, the self-cleavage stood at 0.0437.

In the case of C3U C27U, the self-cleavage turned out to be 0.231.

On to C3U C27A, for which the self-cleavage amounted to 0.159.

With C3G C14G, the self-cleavage was determined as 0.0805.

C3G C14A: the self-cleavage stood at 0.418.

Consider C3G C14U, for which the self-cleavage is 0.47.

In the case of C3U G36U, the self-cleavage is 0.064.

For C3U G36C, the self-cleavage is 0.0744.

For the variant C3U G43C, the self-cleavage was 0.0646.

In the case of C3U G43A, the self-cleavage turned out to be 0.0963.

As for C3U G43U, the self-cleavage was found to be 0.0863.

Turning to A4G U18A, the self-cleavage was 0.364.

As to A4G C19A, the self-cleavage came out at 0.0929.

On to A4G C19G, for which the self-cleavage is 0.166.

Turning to A4G C19U, the self-cleavage stood at 0.887.

As to C3U G48A, the self-cleavage amounted to 0.381.

Regarding C3U G48C, the self-cleavage came to 0.484.

As to A4G A10G, the self-cleavage stood at 0.892.

In the case of A4G A10C, the self-cleavage worked out at 0.762.

Consider A4G U6A, for which the self-cleavage came to 0.866.

Regarding A4G U6G, the self-cleavage was found to be 0.074.

With A4G G38A, the self-cleavage stood at 0.867.

With C3U C25U, the self-cleavage turned out to be 0.238.

In the case of C3G C26G, the self-cleavage was 0.0704.

As to A4C A35U, the self-cleavage came out at 0.272.

As for A4C A35C, the self-cleavage amounted to 0.301.

For the variant C3A C27U, the self-cleavage stood at 0.183.

For C3A C27A, the self-cleavage turned out to be 0.148.

In the case of C3G G43C, the self-cleavage amounted to 0.101.

With C3G G43A, the self-cleavage worked out at 0.12.

With C3G G43U, the self-cleavage stood at 0.124.

Turning to A4G C20A, the self-cleavage was 0.14.

On to A4G C20U, for which the self-cleavage turned out to be 1.06.

C3U C9U: the self-cleavage came to 0.253.

C3G U6A: the self-cleavage came out at 0.13.

Consider C3G U6G, for which the self-cleavage was 0.015.

Take C3G U6C: the self-cleavage was found to be 0.0367.

Turning to C3G C27A, the self-cleavage was 0.0737.

Regarding A4C G28A, the self-cleavage worked out at 0.12.

With C3U A35C, the self-cleavage was found to be 0.493.

For C3U A35U, the self-cleavage was determined as 0.421.

Regarding C3U G47A, the self-cleavage turned out to be 0.361.

Take C3U G47U: the self-cleavage turned out to be 0.513.

For the variant C3A U12G, the self-cleavage was found to be 0.159.

Consider C3A U12A, for which the self-cleavage was 0.0973.

For the variant C3U U12G, the self-cleavage was 0.391.

For C3U U12A, the self-cleavage is 0.41.

For the variant C3U U12C, the self-cleavage is 0.39.

With C3A G39A, the self-cleavage came to 0.0266.

On to C3A G39U, for which the self-cleavage worked out at 0.0737.

With C3G G17A, the self-cleavage is 0.213.

With A4G A32C, the self-cleavage was 0.719.

On to A4G A32U, for which the self-cleavage was found to be 0.945.

For C3G C19A, the self-cleavage came out at 0.0808.

In the case of C3G G7C, the self-cleavage was found to be 0.0501.

On to C3G G7A, for which the self-cleavage came to 0.0769.

For the variant C3U C26G, the self-cleavage came out at 0.0758.

With C3U C26U, the self-cleavage worked out at 0.138.

In the case of A4C G41U, the self-cleavage amounted to 0.0895.

Take A4C G41C: the self-cleavage was determined as 0.0877.

Regarding A4C G48U, the self-cleavage came out at 0.232.

As to C3G G45U, the self-cleavage amounted to 0.31.

Turning to C3A A40C, the self-cleavage worked out at 0.0582.

For the variant C3U U37A, the self-cleavage was determined as 0.533.

Turning to C3G U18G, the self-cleavage came to 0.0365.

For C3G U18A, the self-cleavage is 0.116.

On to C3U A23U, for which the self-cleavage came out at 0.194.

Turning to C3U A23G, the self-cleavage was 0.101.

For the variant A4G C46A, the self-cleavage was determined as 0.785.

As for A4G G7U, the self-cleavage was found to be 0.052.

In the case of C3G A30C, the self-cleavage worked out at 0.167.

Take A4G G42C: the self-cleavage came out at 0.186.

As for C3G U37A, the self-cleavage amounted to 0.421.

Take C3G U37G: the self-cleavage worked out at 0.478.

C3G U37C: the self-cleavage is 0.18.

For the variant A4C C5A, the self-cleavage amounted to 0.0937.

For C3G G38C, the self-cleavage was 0.449.

On to C3G G38U, for which the self-cleavage amounted to 0.607.

With C3G G38A, the self-cleavage was found to be 0.559.

Take A4G G28U: the self-cleavage amounted to 0.644.

For the variant A4G G28A, the self-cleavage was 0.58.

Turning to C3A U18A, the self-cleavage came to 0.0528.

In the case of C3A U18C, the self-cleavage was determined as 0.0738.

On to C3A U18G, for which the self-cleavage came out at 0.0709.

Consider A4C G16C, for which the self-cleavage was 0.0536.

As for A4C G16U, the self-cleavage stood at 0.107.

Turning to C3U G16C, the self-cleavage was 0.163.

Turning to C3U G16A, the self-cleavage came out at 0.248.

C3U G16U: the self-cleavage was found to be 0.183.

Regarding A4G C9U, the self-cleavage turned out to be 0.549.

Consider A4G C9G, for which the self-cleavage worked out at 0.601.

Regarding A4C C19G, the self-cleavage was 0.0582.

On to A4C C19A, for which the self-cleavage came out at 0.0783.

On to A4C C19U, for which the self-cleavage was 0.0705.

In the case of A4C G13C, the self-cleavage came out at 0.0474.

Take A4C G13A: the self-cleavage worked out at 0.0606.

For A4C G13U, the self-cleavage was 0.072.

As to C3U A30U, the self-cleavage was found to be 0.397.

Take A4C G47C: the self-cleavage was determined as 0.0906.

A4C G47A: the self-cleavage came to 0.178.

With A4C G43U, the self-cleavage turned out to be 0.103.

Turning to A4C G43A, the self-cleavage amounted to 0.0357.

Take A4C C27G: the self-cleavage was 0.0637.

Regarding A4G C8G, the self-cleavage stood at 0.289.

On to A4G A11G, for which the self-cleavage worked out at 0.96.

Turning to C3A U37G, the self-cleavage came out at 0.17.

Turning to A4G G48U, the self-cleavage turned out to be 0.979.

Regarding C3U G28C, the self-cleavage was determined as 0.167.

Regarding C3U G28A, the self-cleavage was found to be 0.409.

Turning to A4C A30G, the self-cleavage came out at 0.163.

For the variant A4C A30U, the self-cleavage was 0.189.

In the case of C3G C9G, the self-cleavage stood at 0.139.

In the case of C3G C9A, the self-cleavage was 0.0934.

Take A4G A40G: the self-cleavage worked out at 0.17.

Values taken from the RNAGym collection of RNA variant scans (doi:10.7554/elife.80360).
